Broadly, the koff is the first-order rate constant of dissociation. Broadly, the kon is the rate constant with which the complex forms.

We go through two substances from publication PMC12063177.

Test [1] deals with streptavidin (Streptomyces avidinii) (UniProt P22629). The note with it: cited from earlier work.
For test [2], the target named is YaxAΔ40B_(strepII-70aa) nanopore. The test is described as follows: single-channel nanopore electrical recording; apparent constants; SA titrated 1-25 nM in cis in 25% (v/v) mixed-protein solution (602 uM BSA, 35 uM HTf, 100 nM BT, 100 nM CRP before dilution); 80 nM biotin in trans; PDB11PEO8:DPhPC (1:1) hybrid bilayer; -75 mV sweeps protocol; 150 mM NaCl, 15 mM TrisHCl pH 7.5.

Test [3] deals with YaxAΔ40B_(weak-50aa) nanopore. The test is described as follows: single-channel nanopore electrical recording; single pore in a DPhPC planar bilayer; SA 20 nM or BT 50 nM added to cis; -75 mV; 150 mM NaCl, 15 mM TrisHCl pH 7.5.

Chain of Streptavidin (P22629 25-183): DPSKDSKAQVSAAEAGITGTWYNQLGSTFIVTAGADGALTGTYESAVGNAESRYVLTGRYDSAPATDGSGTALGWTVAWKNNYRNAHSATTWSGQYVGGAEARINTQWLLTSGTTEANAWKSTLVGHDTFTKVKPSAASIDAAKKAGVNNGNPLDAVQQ
Chain of streptavidin (Streptomyces avidinii) (P22629 25-183): as above

With strepII-peptide, the Kd in test [1] is 70 µM.
Turning to “Streptavidin (from UniProt P22629 25-183) (natural protein)”, in test [2], the Kd turned out to be 0.023 µM, the off-rate (koff) was found to be 0.2 s⁻¹ and the kon was determined as 8.77e+06 M⁻¹ s⁻¹. Further, the dwell time in test [3] was 5580 ms.
